Positions count from the first letter of the chain named. Names and notes keep the numbering of the source.
Columns and labels:
Experiment in all cases: cell-based or functional assay
[1] = biological target: T1, I1^C: IMPDH1^C-[C-extein]linker-Trx-EFRSHHHHHH fusion protein
T1 chain: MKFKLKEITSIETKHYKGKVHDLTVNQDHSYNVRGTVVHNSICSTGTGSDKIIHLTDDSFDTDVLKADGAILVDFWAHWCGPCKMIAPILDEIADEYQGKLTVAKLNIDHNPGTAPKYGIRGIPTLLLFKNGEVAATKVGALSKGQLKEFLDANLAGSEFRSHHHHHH

[2] = biological target: T1, I1^C: …
[3] = biological target: T1, I1^C: …
[4] = biological target: T2, G1^C: Gp41.1^C-[C-extein]linker-Trx-EFRSHHHHHH fusion protein
T2 chain: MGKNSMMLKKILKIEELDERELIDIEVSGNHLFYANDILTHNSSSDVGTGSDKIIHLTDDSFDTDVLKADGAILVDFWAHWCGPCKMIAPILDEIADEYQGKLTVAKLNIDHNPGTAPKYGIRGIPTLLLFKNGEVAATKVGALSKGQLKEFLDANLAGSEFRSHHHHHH

[5] = biological target: T2, G1^C: …
[6] = biological target: T2, G1^C: …
[7] = biological target: T3, N1^C: NrdJ1^C-[C-extein]linker-Trx-EFRSHHHHHH fusion protein
T3 chain: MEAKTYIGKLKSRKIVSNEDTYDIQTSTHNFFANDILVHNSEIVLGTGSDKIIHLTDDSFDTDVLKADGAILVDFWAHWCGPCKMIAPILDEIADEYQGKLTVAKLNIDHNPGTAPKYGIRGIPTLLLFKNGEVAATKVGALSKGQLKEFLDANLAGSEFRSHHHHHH

[8] = biological target: T3, N1^C: …
[9] = biological target: T3, N1^C: …
[10] = biological target: T4, G8^C: Gp41.8^C-[C-extein]linker-Trx-EFRSHHHHHH fusion protein
T4 chain: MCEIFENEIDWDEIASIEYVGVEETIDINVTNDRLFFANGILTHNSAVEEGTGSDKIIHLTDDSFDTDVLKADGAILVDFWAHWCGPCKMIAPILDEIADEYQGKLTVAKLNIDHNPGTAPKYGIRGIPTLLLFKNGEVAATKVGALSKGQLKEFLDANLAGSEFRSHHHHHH

[11] = biological target: T4, G8^C: …
[12] = biological target: T4, G8^C: …

B1: I1^N: StreptagII-gpD-linker[N-extein]-IMPDH1^N-GGHHHHHH fusion protein (other)
chain: MASWSHPQFEKASKETFTHYQPQGNSDPAHTATAPGGLSAKAPAMTPLMLDTSSRKLVAWDGTTDGAAVGILAVAADQTSTTLTFYKSGTFRYEDVLWPEAASDETKKRTAFAGTAISIVGSGIGGGCFVPGTLVNTENGLKKIEEIKVGDKVFSHTGKLQEVVDTLIFDRDEEIISINGIDCTKNHEFYVIDKENANRVNEDNIHLFARWVHAEELDMKKHLLIELEGGHHHHHH
In the case of B1, the “trans-splicing first order rate constant k, 25 °C” value [1] is reported as 0.02 s⁻¹, the “trans-splicing t1/2, 25 °C” value [1] is reported as 0.567 min and the “splice product formation at 5 minutes, 25 °C” value (shortened to “splice product formation”) [2] is reported as ~90%. The “trans-splicing speed, fold faster than Npu DnaE, 25 °C” value [2] was 7 fold.

B2: I1^N(C1A): StreptagII-gpD-linker[N-extein]-IMPDH1^N(C1A)-GGHHHHHH fusion protein (other)
chain: B1 chain with C128A
With B2 the “C-terminal cleavage k, 25 °C” value [3] was 0.000365 s⁻¹ and the “C-terminal cleavage t1/2, 25 °C” value [3] was 31.6 min.

B3: G1^N: StreptagII-gpD-linker[N-extein]-Gp41.1^N-GGHHHHHH fusion protein (other)
chain: MASWSHPQFEKASKETFTHYQPQGNSDPAHTATAPGGLSAKAPAMTPLMLDTSSRKLVAWDGTTDGAAVGILAVAADQTSTTLTFYKSGTFRYEDVLWPEAASDETKKRTAFAGTAISIVGSTRSGYCLDLKTQVQTPQGMKEISNIQVGDLVLSNTGYNEVLNVFPKSKKKSYKITLEDGKEIICSEEHLFPTQTGEMNISGGLKEGMCLYVKEGGHHHHHH
In the case of B3, the “trans-splicing first order rate constant k, 25 °C” value [4] is reported as 0.057 s⁻¹, the “trans-splicing t1/2, 25 °C” value [4] is reported as 0.2 min and the “splice product formation” value [5] is reported as ~90%. For the same binder, the “trans-splicing activity in 4 M urea after 1 hour, relative to optimized conditions” value [5] was ~50%, the “trans-splicing activity, fold faster than Npu DnaE, 12 °C” value [5] was 6 fold and the “trans-splicing activity, fold faster than Npu DnaE, 25 °C” value [5] was 15 fold. For the same binder, the “trans-splicing activity, fold faster than Npu DnaE, 37 °C” value [5] was 10 fold and the “trans-splicing speed, fold faster than Npu DnaE, 25 °C” value [5] was 31 fold.

B4: G1^N(C1A): StreptagII-gpD-linker[N-extein]-Gp41.1^N(C1A)-GGHHHHHH fusion protein (other)
chain: B3 chain with C128A
With B4 the “C-terminal cleavage k, 25 °C” value [6] was 0.000595 s⁻¹ and the “C-terminal cleavage t1/2, 25 °C” value [6] was 19.4 min.

B5: N1^N: StreptagII-gpD-linker[N-extein]-NrdJ1^N-GGHHHHHH fusion protein (other)
chain: MASWSHPQFEKASKETFTHYQPQGNSDPAHTATAPGGLSAKAPAMTPLMLDTSSRKLVAWDGTTDGAAVGILAVAADQTSTTLTFYKSGTFRYEDVLWPEAASDETKKRTAFAGTAISIVGSGTNPCCLVGSSEIITRNYGKTTIKEVVEIFDNDKNIQVLAFNTHTDNIEWAPIKAAQLTRPNAELVELEINTLHGVKTIRCTPDHPVYTKNRDYVRADELTDDDELVVAIGGHHHHHH
For B5, the “trans-splicing first order rate constant k, 25 °C” value [7] was 0.062 s⁻¹, the “trans-splicing t1/2, 25 °C” value [7] was 0.333 min and the “splice product formation” value [8] was ~90%. For the same binder, the “trans-splicing speed, fold faster than Npu DnaE, 25 °C” value [8] was 9 fold.

B6: N1^N(C1A): StreptagII-gpD-linker[N-extein]-NrdJ1^N(C1A)-GGHHHHHH fusion protein (other)
chain: B5 chain with C128A
In the case of B6, the “C-terminal cleavage k, 25 °C” value [9] is reported as 0.00027 s⁻¹ and the “C-terminal cleavage t1/2, 25 °C” value [9] is reported as 43 min.

B7: G8^N: StreptagII-gpD-linker[N-extein]-Gp41.8^N-GGHHHHHH fusion protein (other)
chain: MASWSHPQFEKASKETFTHYQPQGNSDPAHTATAPGGLSAKAPAMTPLMLDTSSRKLVAWDGTTDGAAVGILAVAADQTSTTLTFYKSGTFRYEDVLWPEAASDETKKRTAFAGTAISIVGSSQLNRCLSLDTMVVTNGKAIEIRDVKVGDWLESECGPVQVTEVLPIIKQPVFEIVLKSGKKIRVSANHKFPTKDGLKTINSGLKVGDFLRSRAKGGHHHHHH
With B7 the “trans-splicing first order rate constant k, 25 °C” value [10] was 0.017 s⁻¹, the “trans-splicing t1/2, 25 °C” value [10] was 0.667 min and the “splice product formation” value [11] was ~90%. The “trans-splicing speed, fold faster than Npu DnaE, 25 °C” value [11] was 6 fold.

B8: G8^N(C1A): StreptagII-gpD-linker[N-extein]-Gp41.8^N(C1A)-GGHHHHHH fusion protein (other)
chain: B7 chain with C128A
B8 was tested, and the “C-terminal cleavage k, 25 °C” value [12] was 9.5e-05 s⁻¹ and the “C-terminal cleavage t1/2, 25 °C” value [12] was 122 min.
